Results reported in patent US20030059763A1, “Immunoglobulin class switch recombination” (priority 2001, published 2003).

B1: IL-4: cytokine purchased from R & D system (protein, UniProt P05112 25-153, looked up)
Interleukin-4: HKCDITLQEIIKTLNSLTEQKTLCTELTVTDIFAASKNTTEKETFCRAATVLRQFYSHHEKDTRCLGATAQQFHRHKQLIRFLKRLDRNLWGLAGLNSCPVKEANQSTLENFLERLKTIMREKYSKCSS
B2: IFN-γ: cytokine (protein, UniProt P01579 24-161, looked up)
Interferon gamma: QDPYVKEAENLKKYFNAGHSDVADNGTLFLGILKNWKEESDRKIMQSQIVSFYFKLFKNFKDDQSIQKSVETIKEDMNVKFFNSNKKKRDDFEKLTNYSVTDLNVQRKAIHELIQVMAELSPAAKTGKRKRSQMLFRG
B3: IL-10: cytokine (protein, UniProt P22301 19-178, looked up)
Interleukin-10: SPGQGTQSENSCTHFPGNLPNMLRDLRDAFSRVKTFFQMKDQLDNLLLKESLLEDFKGYLGCQALSEMIQFYLEEVMPQAENQDPDIKAHVNSLGENLKTLRLRLRRCHRFLPCENKSKAVEQVKNAFNKLQEKGIYKAMSEFDIFINYIEAYMTMKIRN

Tests used:
[1] = system: plasmid p77D3.11 (human Sμ and Sε); assay: In vitro (cell-free) switch recombination assay, white vs blue colonies; assay type: biochemical; settings: added to the recombination reaction; EDTA 10 mM
Procedure: Nuclear cell extracts from primary human B cells and cell lines were prepared by the Nonidet P-40 (NP-40) lysis method (Dyer and Herzog, BioTechniques 19:192-195 (1995)) with important modifications. Briefly, 10^8 (10^7 for cell lines) purified fresh human tonsillar B lymphocytes (Zhang et al., 1994, supra) were harvested following culture for 3 days with or without 0.1 μg/ml of anti-CD40 monoclonal antibody G28.5 (Zhang et al., 1994, supra) and were lysed with 1 ml of sucrose buffer (0.32 M sucrose, 3 mM CaCl2, 2 mM magnesium acetate, 0.1 mM EDTA, 10 mM Tris-HCl, pH 8.0, 1 mM DTT, 0.5 mM PMSF) containing 0.5% (vol/vol) NL-40 (BRL, Gaithersburg, Mich.). The cells were lysed immediately and the intact nuclei were pelleted by centrifugation at 2400 rpm/5 min at 4° C. The nuclei were washed twice (10^8 B cells/ml) with ice-cold sucrose buffer lacking NP-40. The pelleted nuclei were suspended in 50 μl/10^8 B cells with low-salt buffer (20 mM Hepes, pH 7,6, 25% glycerol, 1.5 mM MgCl2, 20 mM KCl, 0.2 mM EDTA, 0.5 mM DTT, 0.5 mM PMSF) followed by slowly adding 1 vol of high-salt buffer (20 mM Hepes, pH 7.6, 25% glycerol, 1.5 mM MgCl2, 800 mL KCl, 0.2 mM EDTA, 0.5 mM DTT, 0.5 mM PMSF) at 4° C. for 30 min with agitation for nuclear protein extraction. […] The concentration of the nuclear protein was determined by Bradford assay. […]

[2] = system: Ramos 2G6 cells stably transfected with XF-1; assay: Substrate switch recombination (SSR), GFP positive cells by FACS, construct XF-1; assay type: cell-based, human; settings: XF-1 cells; cytokines alone or in combination with CD40 mAb
Text: (§1) The backbone of our switch substrate contained 1.6 Kb of the human Sμ (Zhang and Cheah, 2000, supra) and 1.8 Kb of the human Sγ2 regions (Mills et al, 1995, supra) under the transcriptional control of the CMV (pCMV) and the SV40 promoters (pSV40) respectively. A RSV LTR enhancer/promoter (pRC/RSV-LTR) and a GFP gene under the control of an internal ribosome entry site (IRES) were interposed between Sμ and Sγ2 in the reverse transcriptional orientation (FIG. 1A). Thus, the GFP gene will not be expressed within the gennline configuration of the construct. Detection of switch recombination between the Sμ and Sγ2 in the construct is based on the mechanism of the deletional recombination that excises and deletes the intervening DNA sequences between the Sμ and Sγ2. This excised sequence including the IRES-GFP expression unit forms an extrachromosomal circular DNA that is now under the transcriptional control of the pRSV-LTR (FIG. 1A). The RNA splice donor and acceptor sites permit uniform expression of the GFP from the excised circular DNA (FIG. 1A). Since the GFP gene is expressed only after the switch recombination (recombination or inversion, FIG. 1A) between the Sμ and Sγ2, switch recombination can be monitored in the cultured living cells in “real-time” by fluorescence microscopy. Furthermore, the frequency of switch recombination can be quantitatively measured by flow cytometry.
(§2) To test the potential roles of DNA sequences that may control or regulate the processes involved in switch recombination, the DNA fragments of interest were engineered into the basic switch construct (XF-1) to generate a series of modified switch constructs as diagrammed in the FIG. 1B. All the modified constructs were transfected into Ramos 2G6 cells as stable constructs to establish the switch cell lines. The integrity and copy number of the constructs were determined by Southern Blot analysis and PCR. Only subclones that contain a single copy of the construct were used. To distinguish the substrate switch recombination described here from switch recombination occurring at the intrinsic IgH loci (e.g., CSR), the former is abbreviated as SSR.
(§3) The human B lymphoma cell line Ramos 2G6 (ATCC, Rockville pike, Md.) and its subclones, L cells stably transfected with human CD40L (CD154) provided by D. Rawlings, UCLA), and CHO cells stably transfected with murinc CD40L (Immunex Inc, Seattle, Wash.) were maintained and cultured in complete PRMI 1640 (Zhang et al, 1994, supra). One million cells in 0.2 ml were transfected with 10 μg plasmid DNA by electroporation (200V, 0.975 μF). Genicitin (G418) was added to cultures two days later for clonal selection and the levels increased over four week to concentrations that were previously determined by dosage titration for the different cell lines.
(§4) The expression of GFP in cell lines stably transfected with switch vectors following various stimulated culture conditions was measured by either single- or dual-color flow cytometry (FACS Core laboratory, UCLA). The data were analyzed with FCS express software (De Novo software Inc, Thornhill, Ontario, Canada).

[3] = system: Ramos 2G6/XF-5a.1 cells; assay: Substrate switch recombination (SSR), GFP positive cells by FACS, construct XF-5a; assay type: cell-based, human; settings: for effect on SSR: XF-5a / XF-5a.1 cells, antibodies 1 μg/ml, cytokines 5 ng/ml alone or with CD40 mAb
Text: pXF-5a: A PCR amplified 356 bp fragment containing Iε exon and its 5′ promoter region (pIε) was inserted into Xho I and Xba I sites in pXF-1.
as §1, §2, §3, §4

[4] = biological target: CD40 on human B lymphoma cell line Ramos 2G6 (stably transfected with switch constructs XF-1 / XF-5a) (human) (UniProt P25942); assay: cell-based or functional assay
[5] = system: Iε-Cε1′ transcripts in Ramos 2G6/XF-5a.1 cells; assay: RT-PCR of processed Iε-Cε1′ transcripts from the construct; assay type: cell-based, human; settings: 48 hours, IL-4 1 ng/ml, CD40 mAb 1 μg/ml
Procedure: The cells were cultured in the presence of IL-4 (1 ng/ml) and CD40 mAb (1 μg/ml) for 48 hours following by RNA preparation and RT-PCR. Total RNA (2 μg) was used for reverse-transcription and cDNA derived from 0.2 μg of RNA was subject to PCR amplification using the primers diagrammed in the FIG. 7B. The ratio of SSR from the cultures (assayed at day 5) is shown in the bottom. […] Diagrams of the formation of the “germ line” transcripts Iε-Cε1′ from the transgenes and the Iε-Cε2 from the endogenous IgH ε locus are shown in the FIG. 7B. The arrows represent the positions of the primers used for PCR.
PCR and […] (RT-PCR) were performed as described previously (Zhang et al, 1994, supra; Zhang and Cheah, 2000, supra). For amplification of the Sμ-Sγ2 products, genomic DNA from the stably transfected Ramos 2G6 cells was amplified with PCR Kit for GC-rich DNA (Clonetech, Palo Alto, Calif.). […]
The role of transcriptional activity vs. SSR was further investigated using Ramos 2G6/XF-5a.1. As the XF-5a construct contains the Iε exon and a Cε1 exon (referred to as Cε1′) that is able to form processed transcripts through RNA splicing, transcriptional activity of the construct can be semi-quantitatively determined by measuring the Iε-Cε1′ transcripts by RT-PCR (FIG. 7). […]

[6] = system: Ramos 2G6 cells stably transfected with XF-2b; assay: Substrate switch recombination (SSR), construct XF-2b; assay type: cell-based, human; settings: XF-2b cells
Text: pXF-2b: The CMV promoter in pXF-2a was deleted by removal of the Ase I and Xho I fragment.
as §2
as §3, with “One million cells in 0.2 ml were transfected with 10 μg plasmid DNA by electroporation (200V, 0.975 μF).” left out, “lines. […]” for “lines.”

Sequence of CD40 on human B lymphoma cell line Ramos 2G6 (stably transfected with switch constructs XF-1 / XF-5a) (human) (P25942 21-277): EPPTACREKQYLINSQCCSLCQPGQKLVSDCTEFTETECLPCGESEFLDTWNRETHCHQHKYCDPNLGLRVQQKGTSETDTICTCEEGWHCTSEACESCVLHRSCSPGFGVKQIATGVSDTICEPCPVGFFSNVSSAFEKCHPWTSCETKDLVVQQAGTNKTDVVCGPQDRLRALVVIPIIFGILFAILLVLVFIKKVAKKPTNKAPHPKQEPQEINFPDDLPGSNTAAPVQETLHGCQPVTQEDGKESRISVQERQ

Row | Molecule | effect on SSR frequency [2] | effect on SSR [3] | further results
1 | O=C(O)CN(CCN(CC(=O)O)CC(=O)O)CC(=O)O [EDTA] |  |  | effect on recombination activity [1]: almost completely blocked the activity
2 | IL-5: cytokine | did not increase | did not increase | 
3 | Anti-CD40 mAb G28.5 (antibody) |  |  | GFP expression level (percent of cells), Ramos 2G6/XF-5a.1, in the presence of IL-4 [4]: > 50%; SSR frequency (percent GFP positive cells), Ramos 2G6/XF-5a.1, without IL-4 [4]: 3.2%; SSR rate (percent GFP positive cells), Ramos 2G6 with construct XF-1 [4]: 1.9%
4 | TGF-β | did not increase | did not increase | 
5 | IL-6: cytokine | did not increase | did not increase | 
6 | B1 | marginal effects | limited effects | change of level of processed Iε-Cε1′ transcripts over pCMV-driven level [5]: minimally increased; SSR [6]: efficient SSR did not result; GFP expression, plateau of IL-4 dose-response ([3]; XF-5a cells, in the presence of CD40 mAb (1 μg/ml), plateau at 3 ng/ml IL-4): around 50%
7 | B2 | did not increase | did not increase | 
8 | B3 | did not increase | did not increase | 
